Test results from patent US20240002531A1 (ONO PHARMACEUTICAL, published 2024).

Legend:
Assay in all cases: SPR Biacore, mAb on chip, peptide analyte, 1:1 fit;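 also: all binding measurements run at 25 °C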
HER2 peptide p611-622 = target: T1, HER2 peptide p611-622 (human)
T1 peptide: MPIWKFPDEEGA
Method: (§1) Unreacted NHS esters were blocked with ethanolamine. […] All measurements were performed at 25° C. Measurement data were analyzed using a 1:1 binding model of BIAevaluation software (Cytiva) to determine a binding rate constant (ka), a dissociation rate constant (kd), and a dissociation constant (KD). For those in which ka or kd could not be determined, KD was determined using the equilibrium value analysis method of BIAevaluation software (Cytiva).

HER2 peptide p613-620 = target: T2, HER2 peptide p613-620 (human)
T2 peptide: IWKFPDEE
Method: as §1

HER2 peptide p612-620 = target: T3, HER2 peptide p612-620 (human)
T3 peptide: PIWKFPDEE
Method: as §1

HER2 peptide p610-621 = target: T4, HER2 peptide p610-621 (human)
T4 peptide: YMPIWKFPDEEG
Method: as §1

HER2 peptide p609-622 = target: T5, HER2 peptide p609-622 (human)
T5 peptide: SYMPIWKFPDEEGA
Method: as §1

HER2 peptide p612-621 = target: T6, HER2 peptide p612-621 (human)
T6 peptide: PIWKFPDEEG
Method: as §1

HER2 peptide p611-620 = target: T7, HER2 peptide p611-620 (human)
T7 peptide: MPIWKFPDEE
Method: as §1

HER2 peptide p610-622 = target: T8, HER2 peptide p610-622 (human)
T8 peptide: YMPIWKFPDEEGA
Method: as §1

HER2 peptide p612-619 = target: T9, HER2 peptide p612-619 (human)
T9 peptide: PIWKFPDE
Method: as §1

HER2 peptide p613-619 = target: T10, HER2 peptide p613-619 (human)
T10 peptide: IWKFPDE
Method: as §1

HER2 peptide p612-622 = target: T11, HER2 peptide p612-622 (human)
T11 peptide: PIWKFPDEEGA
Method: as §1

HER2 peptide p611-619 = target: T12, HER2 peptide p611-619 (human)
T12 peptide: MPIWKFPDE
Method: as §1

HER2 peptide p610-620 = target: T13, HER2 peptide p610-620 (human)
T13 peptide: YMPIWKFPDEE
Method: as §1

HER2 peptide p610-619 = target: T14, HER2 peptide p610-619 (human)
T14 peptide: YMPIWKFPDE
Method: as §1

HER2 peptide p614-620 = target: T15, HER2 peptide p614-620 (human)
T15 peptide: WKFPDEE
Method: as §1

HER2 peptide p611-621 = target: T16, HER2 peptide p611-621 (human)
T16 peptide: MPIWKFPDEEG
Method: as §1

B1: H2Mab-214 antibody (antibody, V domains shown)
VH: QVTLKESGPGILQPSQTLSLTCSFSGFSLSTSGMGVSWIRQPSGKGLEWLAHIFWDDDKRYNPSLKSRLTISKDTSRNKVFLKITSVDTADTATYYCARRVVATDWYFDVWGAGTTVTVSS
VL: DIVLTQSPASLAVSLGQRATISCRASESVEYYGTTLMQWYQQKPGQPPKLLIYAASKVESGVPARFSGSGSGTDFSLNIHPVEEDDVAMYFCQQSRKVPLTFGAGTKLELKR
notes: Mouse monoclonal from a hybridoma (immunogen HER2ec made in LN229 cells); also called antibody of the present invention
Kd (HER2 peptide p611-622): 23.9 nM | koff (HER2 peptide p611-622): 0.0108 s⁻¹ | kon (HER2 peptide p611-622): 451000 M⁻¹ s⁻¹ | Kd (HER2 peptide p613-620): 2310 nM | koff (HER2 peptide p613-620): 0.01 s⁻¹ | kon (HER2 peptide p613-620): 4340 M⁻¹ s⁻¹ | Kd (HER2 peptide p612-620): 23.7 nM | koff (HER2 peptide p612-620): 0.0179 s⁻¹ | kon (HER2 peptide p612-620): 754000 M⁻¹ s⁻¹ | Kd (HER2 peptide p610-621): 8.57 nM | koff (HER2 peptide p610-621): 0.00519 s⁻¹ | kon (HER2 peptide p610-621): 679000 M⁻¹ s⁻¹ | Kd (HER2 peptide p609-622): 9.37 nM | koff (HER2 peptide p609-622): 0.00526 s⁻¹ | kon (HER2 peptide p609-622): 561000 M⁻¹ s⁻¹ | Kd (HER2 peptide p612-621): 27.9 nM | koff (HER2 peptide p612-621): 0.024 s⁻¹ | kon (HER2 peptide p612-621): 859000 M⁻¹ s⁻¹ | Kd (HER2 peptide p611-620): 17.6 nM | koff (HER2 peptide p611-620): 0.00836 s⁻¹ | kon (HER2 peptide p611-620): 475000 M⁻¹ s⁻¹ | Kd (HER2 peptide p610-622): 38.8 nM | koff (HER2 peptide p610-622): 0.00598 s⁻¹ | kon (HER2 peptide p610-622): 154000 M⁻¹ s⁻¹ | Kd (HER2 peptide p612-619): 22.2 nM | koff (HER2 peptide p612-619): 0.0235 s⁻¹ | kon (HER2 peptide p612-619): 1.06e+06 M⁻¹ s⁻¹ | Kd (HER2 peptide p613-619): 1610 nM | koff (HER2 peptide p613-619): 0.0136 s⁻¹ | kon (HER2 peptide p613-619): 8450 M⁻¹ s⁻¹ | Kd (HER2 peptide p612-622): 39.7 nM | koff (HER2 peptide p612-622): 0.0244 s⁻¹ | kon (HER2 peptide p612-622): 615000 M⁻¹ s⁻¹ | Kd (HER2 peptide p611-619): 11.1 nM | koff (HER2 peptide p611-619): 0.0083 s⁻¹ | kon (HER2 peptide p611-619): 747000 M⁻¹ s⁻¹ | Kd (HER2 peptide p610-620): 8.68 nM | koff (HER2 peptide p610-620): 0.00502 s⁻¹ | kon (HER2 peptide p610-620): 579000 M⁻¹ s⁻¹ | Kd (HER2 peptide p610-619): 5.74 nM | koff (HER2 peptide p610-619): 0.0051 s⁻¹ | kon (HER2 peptide p610-619): 889000 M⁻¹ s⁻¹ | Kd (HER2 peptide p614-620): 41200 nM | koff (HER2 peptide p614-620): 0.0152 s⁻¹ | kon (HER2 peptide p614-620): 370 M⁻¹ s⁻¹ | Kd (HER2 peptide p611-621): 16.8 nM | koff (HER2 peptide p611-621): 0.00961 s⁻¹ | kon (HER2 peptide p611-621): 571000 M⁻¹ s⁻¹
